“Also recorded” adds a separate entry of the source.

Our source for the tumor growth and percent survival values is patent US11266746B2, “Therapeutic antitumor combination of a TLR4 ligand with other treatments” (THE UNITED STATES OF AMERICA, as represented by the …, priority 2016, dated 2022).

The test system of the test is CT26 tumors. As to the kind of experiment: Treatment of small (about 5 mm) established CT26 tumors in mice. In kind it is in vivo, Balb/c mice. Here is the method: Balb/c mice were inoculated subcutaneously with 100,000 or 200,000 CT26 cells on day 1. […] On days 8, 12, 15 and 19 mice were administered PBS or 1 μg, 10 μg or 50 μg of rHMGN1. Tumor growth was monitored and plotted.
Small CT26 tumors were treated by a combination of one intraperitoneal (i.p.) injection of a suboptimal dose of cyclophosphamide or Cytoxan to reduce regulatory T cells (Treg), a key suppressor cell type in tumors, and four intratumoral (i.t.) administrations of HMGN1 within two weeks. Balb/c mice were subcutaneously inoculated with 100,000 or 200,000 CT26 cells on day 1. When the tumor size reached about 5 mm in diameter (by 4-6 days after tumor inoculation), mice were administered one dose of cyclophosphamide (100 mg/kg, i,p.) and/or HMGN1 protein (10 μg, intratumorally), twice a week for 2 weeks. PBS was administered i.t. or i.p. Tumor growth was monitored and plotted.

B1: High Mobility Group Nucleosome-binding protein 1 (protein, UniProt P05114 1-100, looked up)
Non-histone chromosomal …: MPKRKVSSAEGAAKEEPKRRSARLSAKPPAKVEAKPKKAAAKDKSSDKKVQTKGKRGAKGKQAEVANQETKEDLPAENGETKTEESPASDEAGEKEAKSD
notes: TLR4 ligand
B1: where the note is “small (about 5 mm) CT26 tumors, intratumoral rHMGN1 1, 10 or 50 μg on days 8, 12, 15 and 19”, the tumor growth entry is given as “slowed down tumor growth, but did not completely eradicate tumors; also recorded: inhibited tumor growth in a dose dependent manner”. In addition, the percent survival result (small CT26 tumors, intratumoral rHMGN1) is “improvement in percent survival”.
